Measured values taken from the nanobody polyreactivity screen of Harvey et al. (2022).

Assay: yeast display, Sf9 membrane polyspecificity reagent, FACS + sequencing; frameworks hold sequencing errors
Outline: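 After 36–48 hours of galactose induction, yeast (Saccharomyces cerevisiae BJ5465) displaying a synthetic nanobody library were stained at 4 °C for 1 hour with 10% biotinylated, detergent-solubilized Sf9 membrane reagent. Streptavidin microbeads enriched the stained cells before FACS sorting into low and high (top ~1%) gates on anti-HA and streptavidin fluorescence. Each clone's polyreactivity label reflects its gate of origin.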

Q: For “QVQLVESGGGLVQAGGSLRLSCAASGSTLRTYAMGWYRQAPGKERELVAAISFSTTSTYYADSVKGRFTISRDNAKNTVYLQMNSLKPEDTAGYDCAAGPRTRYQPDLPGCYYSWGQGTQVTVSS”, which “polyreactivity (PSR sort gate)” value is on record?
A: The value was “high polyreactivity”.

Q: For “QVQLVESGGGLVQAGGSLRLSCAASGRNFLYNAMGWYRQAPGKERELVAVISKRGGRTYYADSVKGRFTISRDNAKNTVYLQMNSLKPEDTAVYYCAAAYVTPPGPLRYNEYYWGQGTQVTVSS”, which “polyreactivity (PSR sort gate)” value is on record?
A: The value was “high polyreactivity”.

Q: With “QVQLVESGGGLVQAGGSLRLTCAASGRTFYLYAMGWYRQAPGKERELVAAITTSGGSTYYADSVKGRFTFSRDNAKNTVYLQMNSLKPEDTAVSYCNTDLSSTKFDYWGQGTQVTVSS” as the sequence, how does the “polyreactivity (PSR sort gate)” value read?
A: The value was “low polyreactivity”.

Q: With “QVHLVESGGGLVQAGGSLRLSCAASGSIFRIYAMGWYRQAPGKERELVAAINAGGGRTYYADSVKGRFTISRDNAKNTVYLQMNSLKPEDNAVYFCAARHTEYRQESLYYWGQGTQVTVSS” as the sequence, how does the “polyreactivity (PSR sort gate)” value read?
A: Its value is “low polyreactivity”.

Q: Which “polyreactivity (PSR sort gate)” value does the source give for “QVQLVESGGGLVQAGGSLRLSCAASGFTFYRYAMGWYRQAPGKERELVAAITSGGDTYYADSVKGRFTISRDNAKNTVYLQMNSLKPEDTAVYYCAAAPRYGYGLASDSIFDYWGQGTQVTVSS” here?
A: Its value is “high polyreactivity”.

Q: For “QVQLVESGGGLVQAGGSLRLSCAASGSIFHAYAMGWYRQAPGKERELDAAISYTGGTYYADSVKGRFTISRDNAKNTVYLQMNSLKPEDTAVYYCAIVTRYLHIGVPYVEFDYWGQGTQVTVSS”, which “polyreactivity (PSR sort gate)” value is on record?
A: Its value is “low polyreactivity”.

Q: Which “polyreactivity (PSR sort gate)” value does the source give for “QVQLVESVGGLVQAGGSLRLSCAGSGSIFFRNSMLWYRQAPGKERELVAAIRSSVSSTYYADSVKGRFTISRDNAKNTVYLQLNSLKPEDTAVYYCAAAARSYVGYYYWGQGTQVTVSS” here?
A: Its value is “low polyreactivity”.

Q: With “QVQHVESGGGLVQAGGSLRLSCAASGTIFTVYAMGWYRQAPGKERELVAAITRNGGRTYYADSVKGRFTISRDNAKNTVYLQMNSLKPEDTAVYFCAAPGLYSRLDYWGQGTQVTVSS” as the sequence, how does the “polyreactivity (PSR sort gate)” value read?
A: Its value is “high polyreactivity”.

Q: Which “polyreactivity (PSR sort gate)” value does the source give for “QDQLVESGGGLVQAGGSLRLSCAASGSRLGGYAMGWYRQAPGKERELVAAITWNGGRTYYADSVKWRFTISRDNAKNTVYLQMNILKPEDTAVYYCAADYSKGYEYWGQVTQVTVSS” here?
A: Its value is “high polyreactivity”.

Q: Which “polyreactivity (PSR sort gate)” value does the source give for “QVQLVESGGGLVQAGGSLRLSCAASGSIFKEYTMGWYRQAPGKERELVAAITWSDGSTDYADSVKGRFTISRDNAKNTVYLQMNSLKPEDTAVYYCAADYDYPYFWSSGYIDDYWGQGTQVTVSS” here?
A: The value was “low polyreactivity”.

Q: With “QVQLVESGGGLVQAGGSLRLSCAASGRIIGLYTMGWYRQAPGKERELVAAINIRGTRTYYADSVKGRFTISRDNAKNTVYLQMNSLKPEDTSVYYCARSPVVVGSFLSYDYWGQGTQVTVSS” as the sequence, how does the “polyreactivity (PSR sort gate)” value read?
A: Its value is “high polyreactivity”.

Q: For “QVQLVESGGGLVQAGGSLRLSCAASGRMFTYYAMGGYRQAPGKERELVAAINRGVVTTYYADSVKGRFTISRDHAKNTVDLQMNSLKPEDTAVYYCAADWFAANYYVNPVSALDYWGQGTQVTVSS”, which “polyreactivity (PSR sort gate)” value is on record?
A: The value was “low polyreactivity”.

Q: Which “polyreactivity (PSR sort gate)” value does the source give for “QVQLVESGGGLVQAGGSLRLSCAASGSIIPLYAMGWYRQAPGKERELVAAISRRGGSTYYADSVKGRFTISRDNAKNTVYLQMNSLKPEDTAVYYCSVDSPSPSRGPRFYYWGQGTQVTVSS” here?
A: The value was “high polyreactivity”.

Q: For “QVQLVESAGGLVQAGGSLRLSCAASGRTIRWYTMGWYRQAPGKERELVAGISSSGGSTYYADSVKGRFTISRDTAKNTVYLQMNSLKPEDTAVYYCNVVTWYYVFRPWEYDYWGQGTQVTVSS”, which “polyreactivity (PSR sort gate)” value is on record?
A: The value was “low polyreactivity”.

Q: With “QVQLVESGGGLVQAGGSLRLSCAASGFTFFRYAMGWYSQAPGKERELVATITRGGSTNYADSVKGRFTISRDNAKNTVYLQMNSLQPVDTAVYYCNKDKKTPTFDYWGQGTQVTVSS” as the sequence, how does the “polyreactivity (PSR sort gate)” value read?
A: The value was “low polyreactivity”.

Q: For “QVQLVESGRGLVQAGGSLRLSCAASGSTFGRYVMGWYRQAPGKERELVAAISKNAGSTYYADSVKGRFTISRDNAKNTVYLQMNSLKPEDTAVYYCNRERRYRNDYWGQGTQVTVSS”, which “polyreactivity (PSR sort gate)” value is on record?
A: The value was “high polyreactivity”.

Q: Which “polyreactivity (PSR sort gate)” value does the source give for “QVQLVESGGGLVQAGGSLRLSCAASGFIFARYAMGWYRQAPGKERELVAAISWSGARTYYADSVKGRFTISRDNAKNTVYLQMNSLKPEDTAVYYCNADYRKVTGDSYDYWGQGTQVTVSS” here?
A: Its value is “high polyreactivity”.

Q: With “QVQLVESGGGLVQAGGSLRLSCAASGSIFSYYAMGWYRQAPGKERELVAAITTGGGTYYADSVKGRFTISRDNAKNTVYLQMNSLKPEDTAVYYCAKDGYPDQDVQVFNDSDYWGQGTQVTVSS” as the sequence, how does the “polyreactivity (PSR sort gate)” value read?
A: The value was “low polyreactivity”.

Q: Which “polyreactivity (PSR sort gate)” value does the source give for “QVQLVESGGGLVQAGGSLRLSCAASGGTVYRNAMGWYRQAPGKERELVAAITRSGSTNYADSVKGRFTISRDNAKNTVYLQMNSLKPEDTAVYYCAAKFFRNTYSYGMDYWGQGTQVTVSS” here?
A: Its value is “high polyreactivity”.

Q: Which “polyreactivity (PSR sort gate)” value does the source give for “QVQLVESGGGLVQAGGSLRLSCAASGRTFLLNAMGWYRQAPGKERELVAAMTRSGVITYYADSVKGRFTISRDNAKNTVYLQMNSLKPEDTAVYYCAARRDARSTEYGYWGQGTQVTVSS” here?
A: The value was “high polyreactivity”.

Q: Which “polyreactivity (PSR sort gate)” value does the source give for “QVQLVESGGGLVQAGGSLRLSCASSGRTFGFNVMGWYRQATGKERELVAAISWSGGSTYYADSVKGRFTISRDNAKNTVYLQMNILKPEDTAVYYCNAQYSQVNGYDYWGQGTQVTVSS” here?
A: Its value is “low polyreactivity”.

Q: With “QVQLVESGGGLVQAGGSLRLSCAASGFIFIYNAMGWFRQAPGKERELVAAISRTGARTYYADSVKGRFTISRDNAKNTVYLQMNSLKPEDTAVYYCAGGVRTRTEEYDYWGQGTKVTVSS” as the sequence, how does the “polyreactivity (PSR sort gate)” value read?
A: The value was “high polyreactivity”.

Q: Which “polyreactivity (PSR sort gate)” value does the source give for “QVHLVESGGGLVHAGGSLRLSCAASRSTFRNYAMGWYRQAHGKEREFVATINWIGGTTYYADSVKGRFTLSRDNAKNTVDLQMNSLKPVDTGVYYCAAQFDYYPWGGYWGQGTQVTVSS” here?
A: Its value is “high polyreactivity”.

Q: With “QVQLVESGGGLVQAGGSVRLSCAASGRIFRYYMGWYRQAPGKEREFVAAITTRGGRTYYADSVKGRFTISRDNAKNTVSLQMNSLKPEDTAVYYCAAGYNGAIIALRAYDYWGQGTQVTVSS” as the sequence, how does the “polyreactivity (PSR sort gate)” value read?
A: The value was “high polyreactivity”.

Q: For “QVQLVESGGGLVQAGVSLRLSCAASGIILRYYVMGWYRQAPGKERELVAAITSRGGSTYYADSVKGRFTISRDNAKNTVYLQMNSLKPEDTAVYYCAAGYRNVNTFDYWGQGTQVTVSS”, which “polyreactivity (PSR sort gate)” value is on record?
A: The value was “high polyreactivity”.

Q: With “QVQLVESGGGLVQAGGSLRLSCADSGSIFQPYAMGWYRQAPGKERELVAAINGRGGSTHYADSVKGRFTISRDNEKNSVYLQMNSLKPEDTAVYDCAARYYRDYRWYTYAYDYWGQGTQVTVSS” as the sequence, how does the “polyreactivity (PSR sort gate)” value read?
A: Its value is “high polyreactivity”.

Q: Which “polyreactivity (PSR sort gate)” value does the source give for “QVQLVESGGGLVQAGGSLRLSCAASGRIFAGYAMGWYRQAPGKERELVAGISNRGGSTYYADSVKGRFTISRDNAKKTVYLQMNRLKPEDTAVYYCAVRRRSLGGYWGQGTQVTVSS” here?
A: The value was “high polyreactivity”.

Q: For “QGQLVESGGGLVQAGGRLSLSCAASGFTFDNYAMGWYSQAPGKERELVAAITSGGSTNYADSVKGRFTISRDNAKNTVYLQMNSLKPEDTAVYYCNVERSIQAQVNAEYYYWGQGTQVSVSS”, which “polyreactivity (PSR sort gate)” value is on record?
A: The value was “low polyreactivity”.

Q: Which “polyreactivity (PSR sort gate)” value does the source give for “QVQLVESGGGLVQAGGSLRLSCAASGFIFSRYAMGCYSPAPGKVIELVAAISSRGGSTYYADSVKGRFTISRDNAKNTVYLQMNSLKPEDTAVYYCAARGPTFGVDYGYWGQGTQVTLSS” here?
A: The value was “high polyreactivity”.

Q: Which “polyreactivity (PSR sort gate)” value does the source give for “QVQLVESGGGLVQAGGSLRLSCAASGRTFYRSVMGWYRQAPGKERELVAAITPGGSTYADSVKGRFTISRDNAKKTVSLQMNSLKPEDTAVNYCNKRKASSSGYNYWGQVTQVTVSS” here?
A: Its value is “low polyreactivity”.

Q: For “QVQLVESGGGLVQAGGSLRLSCAASGRTFSFNGMGWYRQAPGKERELVAAISRRGTSTYYADSVKGRFTISRDNAKNTVYLQMNSLKPEDTAVYYCAARSTYTRREYDYWGQGTQVTVSS”, which “polyreactivity (PSR sort gate)” value is on record?
A: Its value is “high polyreactivity”.
